Data as given in US20220356229A1 (published 2022).

T1: HKU1 full length Spike (human coronavirus HKU1, UniProt Q5MQD0 13-1276)
T1 sequence: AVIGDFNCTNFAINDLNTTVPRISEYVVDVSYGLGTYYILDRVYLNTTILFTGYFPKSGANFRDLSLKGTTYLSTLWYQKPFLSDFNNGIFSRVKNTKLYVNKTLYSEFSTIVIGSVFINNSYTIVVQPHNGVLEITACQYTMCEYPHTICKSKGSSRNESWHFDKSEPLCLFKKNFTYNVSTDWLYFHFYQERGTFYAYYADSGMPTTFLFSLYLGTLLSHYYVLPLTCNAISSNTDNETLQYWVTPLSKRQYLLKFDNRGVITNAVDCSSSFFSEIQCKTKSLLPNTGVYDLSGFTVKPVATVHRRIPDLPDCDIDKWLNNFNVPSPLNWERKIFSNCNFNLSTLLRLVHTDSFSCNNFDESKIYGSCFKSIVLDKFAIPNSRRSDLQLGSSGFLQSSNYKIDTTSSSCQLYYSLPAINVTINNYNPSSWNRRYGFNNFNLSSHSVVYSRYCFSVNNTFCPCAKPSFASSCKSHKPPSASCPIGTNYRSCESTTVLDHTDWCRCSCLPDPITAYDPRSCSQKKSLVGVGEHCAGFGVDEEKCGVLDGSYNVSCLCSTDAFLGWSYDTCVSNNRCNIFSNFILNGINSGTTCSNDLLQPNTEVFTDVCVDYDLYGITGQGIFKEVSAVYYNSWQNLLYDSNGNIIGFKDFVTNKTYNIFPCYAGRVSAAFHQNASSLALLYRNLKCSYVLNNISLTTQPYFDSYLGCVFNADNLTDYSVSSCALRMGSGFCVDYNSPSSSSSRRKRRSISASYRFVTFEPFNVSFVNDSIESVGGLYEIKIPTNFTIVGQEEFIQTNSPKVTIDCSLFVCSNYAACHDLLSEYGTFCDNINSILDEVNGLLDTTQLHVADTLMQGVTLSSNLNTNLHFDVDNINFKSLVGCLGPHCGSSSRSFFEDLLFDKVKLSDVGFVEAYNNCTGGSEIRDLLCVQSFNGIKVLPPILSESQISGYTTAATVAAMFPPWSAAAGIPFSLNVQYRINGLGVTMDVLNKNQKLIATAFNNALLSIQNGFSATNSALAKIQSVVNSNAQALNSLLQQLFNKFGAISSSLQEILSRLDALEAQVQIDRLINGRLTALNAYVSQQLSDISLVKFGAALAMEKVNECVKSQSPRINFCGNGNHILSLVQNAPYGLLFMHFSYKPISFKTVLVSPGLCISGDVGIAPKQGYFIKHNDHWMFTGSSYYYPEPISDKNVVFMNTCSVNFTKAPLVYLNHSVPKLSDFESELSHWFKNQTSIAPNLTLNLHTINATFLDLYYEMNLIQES

T2: MERS full length Spike (MERS-CoV, UniProt K9N5Q8 18-1291)
T2 sequence: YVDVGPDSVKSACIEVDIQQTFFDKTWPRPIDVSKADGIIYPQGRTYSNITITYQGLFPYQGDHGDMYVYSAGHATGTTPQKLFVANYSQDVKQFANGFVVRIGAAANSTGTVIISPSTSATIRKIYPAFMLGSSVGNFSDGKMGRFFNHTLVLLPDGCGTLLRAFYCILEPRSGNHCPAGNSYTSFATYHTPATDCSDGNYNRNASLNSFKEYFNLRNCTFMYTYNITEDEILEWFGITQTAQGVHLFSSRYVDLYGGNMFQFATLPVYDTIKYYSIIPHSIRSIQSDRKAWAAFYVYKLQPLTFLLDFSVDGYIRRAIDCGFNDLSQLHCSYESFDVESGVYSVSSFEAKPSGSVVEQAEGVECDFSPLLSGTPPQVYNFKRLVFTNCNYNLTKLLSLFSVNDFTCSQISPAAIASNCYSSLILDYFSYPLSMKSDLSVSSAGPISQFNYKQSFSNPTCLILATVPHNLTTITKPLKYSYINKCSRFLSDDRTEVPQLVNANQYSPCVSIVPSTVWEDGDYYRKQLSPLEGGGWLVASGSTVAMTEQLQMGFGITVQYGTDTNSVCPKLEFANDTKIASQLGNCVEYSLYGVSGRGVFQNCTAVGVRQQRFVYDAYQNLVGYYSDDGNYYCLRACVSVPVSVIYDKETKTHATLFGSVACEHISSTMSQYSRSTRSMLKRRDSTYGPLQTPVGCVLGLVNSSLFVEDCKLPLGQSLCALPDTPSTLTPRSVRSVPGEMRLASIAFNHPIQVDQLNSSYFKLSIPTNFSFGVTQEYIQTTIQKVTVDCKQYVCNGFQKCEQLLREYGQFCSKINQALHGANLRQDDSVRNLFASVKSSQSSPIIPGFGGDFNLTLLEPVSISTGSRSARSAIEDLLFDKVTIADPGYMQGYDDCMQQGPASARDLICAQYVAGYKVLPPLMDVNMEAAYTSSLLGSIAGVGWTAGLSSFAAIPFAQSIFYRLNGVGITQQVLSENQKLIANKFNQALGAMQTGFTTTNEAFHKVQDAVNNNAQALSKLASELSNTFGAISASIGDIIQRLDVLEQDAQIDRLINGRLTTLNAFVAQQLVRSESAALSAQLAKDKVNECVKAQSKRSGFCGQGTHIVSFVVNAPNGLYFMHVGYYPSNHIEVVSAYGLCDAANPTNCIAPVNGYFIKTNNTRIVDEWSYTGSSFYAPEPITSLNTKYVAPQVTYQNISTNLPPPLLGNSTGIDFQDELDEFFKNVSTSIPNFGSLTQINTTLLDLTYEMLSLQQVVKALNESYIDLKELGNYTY


Legend:
[1] = molecular target: SARS-CoV-2 Spike (S) protein, wild type, full length (SARS-CoV-2, UniProt P0DTC2 14-1208)
[2] = molecular target: T1, HKU1 full length Spike
[3] = molecular target: T2, MERS full length Spike
[4] = molecular target: SARS-CoV full length Spike (SARS-CoV, UniProt P59594 14-1190)

Row | Binder | bead binding signal (fold over isotype) [1] [fold over isotype] | median fluorescence intensity, fold over isotype control [2] [fold over isotype] | median fluorescence intensity, fold over isotype control [3] [fold over isotype] | median fluorescence intensity, fold over isotype control [4] [fold over isotype]
1 | antibody 288 (antibody, V domains shown) VH: EVQLVESGGGLVQPGGSLRLSCAASGFTFSSYDMHWVRQATGKGLEWVSAIGTAGDTYYPGSVKGRFTISRENAKNSLYLQMNSLRAGDTAVYYCARGANRDYDILTGYYSYYYYGMDVWGQGTTVTVSS VL: not shown | 495 |  |  | 
2 | mAb 1444 (antibody, V domains shown) VH: QVQLVQSGAEVKKPGASVKVSCKASGYTFTAYYMHWVRQAPGQGLEWMGWINPNSDDTNYAQKFQGRVTMTRDTSISTAYMELSRLRSDDTAVYYCAREEGVFTIGDRYFDLWGRGTLVSVSS VL: QTVVTQEPSFSVSPGGTVTLTCGLSSGSVSTSYYPSWYQQTPGQAPRTLIYNTNTRSSGVPDRFSGSILGNKAALTITGAQADDESDYYCVLYMGSGIWVFGGGTKLTVLG |  | 0.98 | 0.98 | 1.03
3 | mAb 1495 (antibody, V domains shown) VH: QVQLVESGGGVVQPGRSLRLSCTASGFTFSSYAMHWVRQAPGKGLEWVAVISYDGNNKYYGDSVKGRFTISRDNSKNTLYLQMNSLRAEDTAVYYCAKGADTPHYSGYHFLSVGYYFYGMDVWGQGTTVTVSS VL: DIQMTQSPSSLSASVGDRVTITCRASQSISYYLNWYQQKPGKAPQLLIYAASSLQSGVPSRFSGSRSGTDFTLTISSLQPEDFATYYCQQSYSTPFTFGPGTKVDIKR |  | 1.05 | 0.93 | 1.08
4 | mAb 1538 (antibody, V domains shown) VH: EVQLLESGGGLVQPGGSLRLSCAASGFTFSSYAMSWVRQAPGKGLEWVSGISDSGGSTYYADYVKGRFTISRDNSKDTLYLQMNSLRAEDTAVYYCAKDRGNEYALTHYYYYAMDVWGQGTTVTVSS VL: DIQMTQSPSSLSASVGDRVTITCRASQSISSYLNWYQQKPGKAPKLLIYAAYSLQSGVPSRFSGGGSGTDFTLTISSLQPEDFATYFCQQSYSTPITFGQGTRLEIKR |  | 0.97 | 0.95 | 0.99
5 | mAb 1585 (antibody, V domains shown) VH: QVQLVESGGGVVQPGRSLRLSCAASGFTFSRFTLHWVRQAPGKGLEWVAVISYDGSNKYYADSVKGRFTISRDNSKSTLYLQMNSLRAEDTGVYYCARDPSTVTGYFDYWGQGTLVTVSS VL: SYVLTQPPSVSVAPGKTAKISCGGDSIGSKSVHWYQQKPGQAPVLVIYYDNDRPSGIPERFSGSNSGNTATLTISRVEAGDEADYYCQVWDIGVVFGGGTKLTVLG |  | 0.88 | 0.94 | 25.8
6 | mAb 1404 (antibody, V domains shown) VH: QITLKESGPTLVKPTQTLTLTCTFSGFSLSISGVGVGWLRQPPGKALEWLALIYWDDDKRYSPSLKSRLTISKDTSKNQVVLKMTNIDPVDTATYYCAHHSISTIFDHWGQGTLVTVSS VL: QSALTQPASVSGSPGQSITISCTATSSDVGDYNYVSWYQQHPGKAPKLMIFEVSDRPSGISNRFSGSKSGNTASLTISGLQAEDEADYYCSSYTTSSAVFGGGTKLTVLG |  | 0.94 | 0.91 | 0.97
7 | antibody 294 (antibody, V domains shown) VH: EVQLVESGGGLVQPGGSLRLSCAASGFTVSSNYMNWVRQAPGKGLEWVSVIYSGGSTYYADSVKGRFTISRDNSKNTLYLQMNSLRAEDTAVYYCARDLGPSGMDVWGQGTTVTVSS VL: DIQMTQSPSSVSASVGDRVTITCRASQGISSWLAWYQQKPGKAPKLLIYAASSLQSGVPSRFSGSGSGTDFTLTISSLQPEDFATYYCQQANSFPLFGGGTKVEIK | 1230 |  |  | 
